Measurements: US20170056486A1 (IMMATICS BIOTECHNOLOGIES, published 2017)

How the values were obtained:
HLA-A*02 [1] = biological target: T1, HLA-A*02 (human); experiment: UV-exchange ELISA (anti-b2m); yield 20%-49%
T1 construct: Peptide-receptive MHC monomer made by UV cleavage of a UV-sensitive ligand and captured on streptavidin plates; also called HLA-A*02 MHC class I molecule; peptide-receptive MHC
Source text: (§1) Candidate peptides for T cell based therapies according to the present invention were further tested for their MHC binding capacity (affinity). The individual peptide-MHC complexes were produced by UV-ligand exchange, where a UV-sensitive peptide is cleaved upon UV-irradiation, and exchanged with the peptide of interest as analyzed. Only peptide candidates that can effectively bind and stabilize the peptide-receptive MHC molecules prevent dissociation of the MHC complexes. To determine the yield of the exchange reaction, an ELISA was performed based on the detection of the light chain (β2m) of stabilized MHC complexes. The assay was performed as generally described in Rodenko et al. (Rodenko et al., 2006).
(§2) 96 well MAXISorp plates (NUNC) were coated over night with 2 ug/ml streptavidin in PBS at room temperature, washed 4× and blocked for 1 h at 37° C. in 2% BSA containing blocking buffer. […] Peptide-MHC monomers of the UV-exchange reaction were diluted 100 fold in blocking buffer. Samples were incubated for 1 h at 37° C., washed four times, incubated with 2 ug/ml HRP conjugated anti-β2m for 1 h at 37° C., washed again and detected with TMB solution that is stopped with […]. Absorption was measured at 450 nm.

HLA-A*02 [2] = biological target: T1, HLA-A*02; experiment: UV-exchange ELISA (anti-b2m); yield >=75%
Source text: as §1, §2

Binder | peptide exchange yield (HLA-A*02 [1]) [%] | peptide exchange yield (HLA-A*02 [2]) [%]
YVLPKLYVKL | 20 to 49 | –
FLIDTSASM | 20 to 49 | –
GLIYEETRGV | 20 to 49 | –
MLSDLTLQL | – | ≥ 75
ILDETLENV | 20 to 49 | –
IQADDFRTL | 20 to 49 | –
SVAKTILKR | 20 to 49 | –
VLLAAGPSAA | 20 to 49 | –
LLRGPPVARA | 20 to 49 | –
RLLPKVQEV (also called ZNF-003) | 20 to 49 | –
GLMDGSPHFL | 20 to 49 | –
TLDHKPVTV | 20 to 49 | –
GVIETVTSL | 20 to 49 | –
GLSSSSYEL | 20 to 49 | –
IASAIVNEL | 20 to 49 | –
HLYNNEEQV | 20 to 49 | –
ALDDSLTSL | 20 to 49 | –
LLYDGKLSSA | 20 to 49 | –
HLPDFVKQL | 20 to 49 | –
SLYHRVLLY | – | ≥ 75
VLGPGPPPL | 20 to 49 | –
SVDSAPAAV | 20 to 49 | –
VLFLGKLLV | 20 to 49 | –
VLISSTVRL | 20 to 49 | –
KILDLTRVL | 20 to 49 | –
EYALLYHTL | 20 to 49 | –
VLLRVLIL | 20 to 49 | –
GLLWQIIKV | 20 to 49 | –
LLDHLSFINKI | 20 to 49 | –
FAWEPSFRDQV | 20 to 49 | –
